{
  "source": "the nanobody polyreactivity screen of Harvey et al. (2022)",
  "data": [
    {"assay": "yeast display, Sf9 membrane polyspecificity reagent, FACS + sequencing; frameworks hold sequencing errors", "summary_of_the_method": "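Galactose induction of a Saccharomyces cerevisiae BJ5465 synthetic nanobody display library ran 36–48 hours. The cells were then stained for 1 hour at 4 °C with 10% biotinylated, detergent-solubilized Sf9 membrane reagent, pulled down on streptavidin microbeads and FACS-sorted into low and high (top ~1%) gates on expression and reagent-binding fluorescence. Labels for polyreactivity follow the gate of origin.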", "values": [
      {"sequence": "QVQLVESGGGLVQAGGSLRLSCAASGGIFRYAMGWYRQAPGKEREFVAAITTRGGSTYYADSVKARFTISRDNAKNTVYLQMNSLKPEDTAVYYCAARRYSGRNKYDYWGQGTQLTVSS", "polyreactivity (PSR sort gate)": "high polyreactivity"},
      {"sequence": "QVQLVESGGGLVQAGGSLRLSCAASGGIFRYYALGWYRPAPGKERELVAASSRSGDSTYYADSVKGRFTISRDNAKNTVYLQMNSLKPEDTAVYYCAKDNDDVHLVHLDYNSDRYGYWGPGTQVTVSS", "polyreactivity (PSR sort gate)": "high polyreactivity"},
      {"sequence": "QVQLVESGGGLVQAGGSLRLSCAASGGIFRYYAMGWYRQAPGKERELVATITSGSITNYADSVKGRFTISRDNAKNTVYLQMNSLKPEDTAVYYCAALGAFPSLEFDYWGQGTQVTVSS", "polyreactivity (PSR sort gate)": "low polyreactivity"},
      {"sequence": "QVQLVESGGGLVQAGGSLRLSCAASGGIFSGNDMGWYRQAPGKERELVATITYSGGTTYYADSVKGRFTISRDNAKNTVYLQMNSLKPEDTAVYYCAADEYGPHTFSPEYDSWGQGTQVTVSS", "polyreactivity (PSR sort gate)": "low polyreactivity"},
      {"sequence": "QVQLVESGGGLVQAGGSLRLSCAASGGIFSGYAMGWYRQAPGKARELVAAISRRGTRTYYADSVKGRFTISRDNAKNTVDLQKNSLTPEDTAVYYCNAELDSLGTYDYWGQGTQVTVSS", "polyreactivity (PSR sort gate)": "high polyreactivity"},
      {"sequence": "QVQLVESGGGLVQAGGSLRLSCAASGGIFSPNAMGWYRQAPGKERELVAAISSNGGSTNYADSVKGRFTISRDHAKNTVYLQMNSLKPEDTAVYYCAGLQKRRSYWRPFYWGQGTQVTVSS", "polyreactivity (PSR sort gate)": "low polyreactivity"},
      {"sequence": "QVQLVESGGGLVQAGGSLRLSCAASGGIFSPNAMGWYRQAPGKERELVAAISSNGGSTNYADSVKGRFTISRDNAKNTVYLQMNSLKPEDTAVFYCAGLQLRRSYRRPFYWGQGTQVTVSS", "polyreactivity (PSR sort gate)": "low polyreactivity"},
      {"sequence": "QVQLVESGGGLVQAGGSLRLSCAASGGIFSQYAMGWYRQAPGKERELVAAINSGVGTNYADSVKGRFTISRDNAKNTVFLQMNSLKPEDTAVYYCAATDDRLWTFDVASYRNDYWGQGTQVTVSS", "polyreactivity (PSR sort gate)": "low polyreactivity"},
      {"sequence": "QVQLVESGGGLVQAGGSLRLSCAASGGIFSVYAMGWYRQPPGKERELVASITVSGGSTSYADSVKGRFTISRDTAKNTVYLQMNSLKPEDTAVYYCNTDFGQAHTLSWYEDMDYWGQGTQVTVSS", "polyreactivity (PSR sort gate)": "low polyreactivity"},
      {"sequence": "QVQLVESGGGLVQAGGSLRLSCAASGGIFSYNALGWYRQAPGKERELVAAISYSSTRTYYADSVKGRFTISRDNAKKTVYLQMNSLKREDTAVYYCAARLSRTRHTSDYWGQGTQVTVSS", "polyreactivity (PSR sort gate)": "high polyreactivity"},
      {"sequence": "QVQLVESGGGLVQAGGSLRLSCAASGGIFTNNAMGWYRQAPGKERELVAAITGSGASTYYADSVKGRFTISRDNAKNTVYLQMNSLKPEDTAVYYCAALSKYYAPLSRYDYWGQGTQVTVSS", "polyreactivity (PSR sort gate)": "high polyreactivity"},
      {"sequence": "QVQLVESGGGLVQAGGSLRLSCAASGGIFTYNAMGWYIQAPGKERELVAAITWNGGRTYYADSVKGRFTISRDTAKNTVYLQMNSLKPEDTAVYYCAARSPVKRQSRKQYYYWGQGTQVTVSS", "polyreactivity (PSR sort gate)": "high polyreactivity"},
      {"sequence": "QVQLVESGGGLVQAGGSLRLSCAASGGIFVLNAMGWYRQAPGKERELVATITSSGGSTYYADSVKGRFTISRDNAKNTVYLQMNSLKPEDTAVYYCNADWYLWSTFAQGYGYWGQGTQVTVSS", "polyreactivity (PSR sort gate)": "high polyreactivity"},
      {"sequence": "QVQLVESGGGLVQAGGSLRLSCAASGGIFWAYAMGWYRQAPGKERELVAAITTLGTSTYYADSVKGRFTISRDNAKNTVYLQMNSLKPEDTGVYYCAAVDPYSYSFDYWGQGTQVTVSS", "polyreactivity (PSR sort gate)": "high polyreactivity"},
      {"sequence": "QVQLVESGGGLVQAGGSLRLSCAASGGIFWYYTRGWYRQAPGKERELVATISSGGRTYYADSVKGRFTISRDNAKNTVYLQMNSLKPEDTAVYYCAKSYRRRQGYSYWGQGTQVTVSS", "polyreactivity (PSR sort gate)": "high polyreactivity"},
      {"sequence": "QVQLVESGGGLVQAGGSLRLSCAASGGIFYHNAMGWYRQAPGKERELVAAISGRGGRTYYADSVKGRFTISRDNAKNTVYLQMNSLKPEDTAVYYCDADQYKDFDYWGQGTQVTVSS", "polyreactivity (PSR sort gate)": "low polyreactivity"},
      {"sequence": "QVQLVESGGGLVQAGGSLRLSCAASGGIFYPNVMGWYRQAPGKEREFVAAITSSSGSTYADSVKGRFTISRDNAKNTVYLQMNSLKPEDTAVYYCAAVENWWGIWVRYDYWGQGTQVTVSS", "polyreactivity (PSR sort gate)": "low polyreactivity"},
      {"sequence": "QVQLVESGGGLVQAGGSLRLSCAASGGIFYSYAMGWYRQAPGKERELVAAITWIGGSTYYADSVKGRFTISRDNAKNTVYLQMNSLKPEDTAVYYCAAEILWGGYDYWGQGTQVTVSS", "polyreactivity (PSR sort gate)": "low polyreactivity"},
      {"sequence": "QVQLVESGGGLVQAGGSLRLSCAASGGIFYYYAMGWYRQAPGKERELVAAISWSGGSTYYADSVKGRFTISRDNAKNTVYLQMNSLKPEDPAVYYCAPYSDFHYAQLEYDYWGQGTQVTVSS", "polyreactivity (PSR sort gate)": "low polyreactivity"},
      {"sequence": "QVQLVESGGGLVQAGGSLRLSCAASGGIIDWYVMGWYRQAPGKERELVAAISYNGGATYYADSVKGRFTISRDNAKNTVYLQMNSLKPEDTAVYYCAAGVTWPYRYVWYVYWGQGTQVTVSS", "polyreactivity (PSR sort gate)": "low polyreactivity"},
      {"sequence": "QVQLVESGGGLVQAGGSLRLSCAASGGIIFYYAMGWYRQAPGKERALVAAISYSGGSTYYADSVKGRFTISRDNAKNTVYLQMNSLKPEDTAVYYCAARTHYFPWPWYVWDYDSWGQGTQVTVSS", "polyreactivity (PSR sort gate)": "low polyreactivity"},
      {"sequence": "QVQLVESGGGLVQAGGSLRLSCAASGGILGVNAMGWYRQAPGKERELVAAISGRGGRTYYADSVKGRSTISRDNAKNTVYLQLNSLKPEDTAVYYCAVEFYSVARFPLWSYYWGQGTQVTVSS", "polyreactivity (PSR sort gate)": "high polyreactivity"},
      {"sequence": "QVQLVESGGGLVQAGGSLRLSCAASGGILGWSAMGWSRQAPGKERELVAAIRDSGGSTYYADSVKGRFTIARDNAKKTVYLQMNSLKPEDTAVYYCAAYYIASRSTRYYYWGQGTQVTVSS", "polyreactivity (PSR sort gate)": "high polyreactivity"},
      {"sequence": "QVQLVESGGGLVQAGGSLRLSCAASGGILNYYAMGWYRQAPGKERELVAAITGIGGSTSYADSVKGRFTISRDNAKNTVYLQMNSLKPEDTAVYYCAAEATSSYYVPDYDYWGQGTQVTVSS", "polyreactivity (PSR sort gate)": "low polyreactivity"},
      {"sequence": "QVQLVESGGGLVQAGGSLRLSCAASGGILVFYAMGWYRQAPGKERELVAAITKRGTSTYYADSVKGRFTISRDIEKNTVYLQMNSLKPEDTAVYYCAAESIPYYRYDYWGQGSQVTVSS", "polyreactivity (PSR sort gate)": "low polyreactivity"},
      {"sequence": "QVQLVESGGGLVQAGGSLRLSCAASGGILYYYAMGWYRQAPGKEREMVAAISSGGRTNYADSVKGRFTISRDNAMNTVYLQMNSLNPEDTAVYYCAARGATGFRRYGVTHYYYWGQGTQVNVSS", "polyreactivity (PSR sort gate)": "high polyreactivity"},
      {"sequence": "QVQLVESGGGLVQAGGSLRLSCAASGGISTAYTMGWYRQEPGKERELVADITRSGGRTYYADSVKGRFTISRDTAKNNVYLQMNSLKPEDTAVYYCARTYYYRFNYWGQGTQVTVSS", "polyreactivity (PSR sort gate)": "high polyreactivity"},
      {"sequence": "QVQLVESGGGLVQAGGSLRLSCAASGGIVSVYAMGWYRQAPGQERELVASITVSGGSTSYADSVKGRFTISRDNAKNTVYLQMNSLIPEDTAVYYCNTDFGQAHTLSWYEDMDYWGQGTQVTVSS", "polyreactivity (PSR sort gate)": "low polyreactivity"},
      {"sequence": "QVQLVESGGGLVQAGGSLRLSCAASGGLFIGYAMGWYRQAPGKERELVAAISYSGGSTYYADSVKGRFTISRDNAKNTVYLQMNSLKPEDTAVYYCAAQVDRKYRWFNSWGQGTQVTVSS", "polyreactivity (PSR sort gate)": "high polyreactivity"},
      {"sequence": "QVQLVESGGGLVQAGGSLRLSCAASGGMGWYRQAPGKERELVATISSVGSTNYADSVKGRFTISRDNAKNTVYLQMNSLKPEDTAVYYCAADYGSDYTKGDYWGQGTQVTVSS", "polyreactivity (PSR sort gate)": "low polyreactivity"},
      {"sequence": "QVQLVESGGGLVQAGGSLRLSCAASGGSFYPYAMGWSRQAPGKERELLAAISWSGDITYYADSVKGRFTISRDNANNTVYLQMNSLKPEDTAVYYCAAGRVVDKDPSYFREGDYWGQGTQVTVSS", "polyreactivity (PSR sort gate)": "low polyreactivity"},
      {"sequence": "QVQLVESGGGLVQAGGSLRLSCAASGGTFAGYAMGWYRQAPGKERELVAAISWSSGRTYYADSVKGRFTISRDIAKNSVYLQMNSLKPEETAVYDCTVLRYRGYDYWGQGTQVTVSS", "polyreactivity (PSR sort gate)": "high polyreactivity"},
      {"sequence": "QVQLVESGGGLVQAGGSLRLSCAASGGTFAIYAMGWYRQAPGKYRELVASINSGGSTNNADSVKGRFTISRDNAKNTVYFQLNLLKPEDTAVYYCNRGYLGYFRYDYWGQGTQVTVSS", "polyreactivity (PSR sort gate)": "high polyreactivity"},
      {"sequence": "QVQLVESGGGLVQAGGSLRLSCAASGGTFATYAMGWYRQAPGKERELVAAISWSGGSTYYAVSVKGRFTISRDNAKNTVYLQMNSLKPEDTAVYYCAAASRAPSGLYYYWGQGTQVTVSS", "polyreactivity (PSR sort gate)": "high polyreactivity"},
      {"sequence": "QVQLVESGGGLVQAGGSLRLSCAASGGTFAVNVMGWYRQAPGKERELVAAITSNGGSTYYADSVNGRFTISRDNAKNTVYLQMNSLKPEDTAVYYCAAEGSGWYTGHYYYWGQGTQVTVSS", "polyreactivity (PSR sort gate)": "low polyreactivity"},
      {"sequence": "QVQLVESGGGLVQAGGSLRLSCAASGGTFAVYAMGWYRQAPGKERELVAAIDSGGRTNYADSVKGRFTISRDNAKNTVYLQMNSLKPEDTAVYYCAADGGGQYVRYDYWGQGTQVTVSS", "polyreactivity (PSR sort gate)": "high polyreactivity"},
      {"sequence": "QVQLVESGGGLVQAGGSLRLSCAASGGTFAWNAMGWYRQATGKERELVAAISFDGTSTYYADSVKGRFTISRDNAKNTVYLQMNSLKPEDTAVYYCNRVYLGYFRYDYWGQGTQVTVSS", "polyreactivity (PSR sort gate)": "high polyreactivity"},
      {"sequence": "QVQLVESGGGLVQAGGSLRLSCAASGGTFAYKAMGWYRQAHGKERQLVAAITSSGGSTYYADSVKGRFTISRDNAKNTVYLQMNRLKPEDTAVYYCNRLRNRSLGGYYYWGQGTQVTVSS", "polyreactivity (PSR sort gate)": "high polyreactivity"},
      {"sequence": "QVQLVESGGGLVQAGGSLRLSCAASGGTFDINDMGWYRQAPGKEREFVAAIDWSGGNTYYADSVKGRFIISRDNAKNTVYLQMNSLKPEDTAVYYCNARRKRSYDYWGQGTQVTVSS", "polyreactivity (PSR sort gate)": "low polyreactivity"},
      {"sequence": "QVQLVESGGGLVQAGGSLRLSCAASGGTFDWNAMGWYRQAPGKERELVASISSSGGSTYYADSVNGRFTISRDNAKNTVYLQMNSLKPEDTAVYYCNAERKIIAYLWWYDYWGQGTQVTVSS", "polyreactivity (PSR sort gate)": "low polyreactivity"},
      {"sequence": "QVQLVESGGGLVQAGGSLRLSCAASGGTFFKNAMGWYRQAPGKERELVAVIDTISTSTYYADSVKGRFTISRDNAKNTVYLQMNSLKPEDTAVYYCAAEYGPGLTEGLYYYWGQGTQVTVSS", "polyreactivity (PSR sort gate)": "high polyreactivity"},
      {"sequence": "QVQLVESGGGLVQAGGSLRLSCAASGGTFGAYAMGWYRQAPGKERELVAAINVGGGSTYYADSVKGRFTISRDNAKNTVDLQMNSLKPEATAGYYCAKDLYDGYWRGDYWGQGTQVTVSS", "polyreactivity (PSR sort gate)": "low polyreactivity"},
      {"sequence": "QVQLVESGGGLVQAGGSLRLSCAASGGTFGTNAMGWYRQAPGKEREFVAAISRSGGSTNYADSVKGRFTISRDNAKNTVYLEMNILKPEDTAVYFCATRVIVVPRGGGYYSWGQGTQVTVSS", "polyreactivity (PSR sort gate)": "high polyreactivity"}
    ]}
  ]
}
